According to patent publication US20200231681A1 (CHONG KUN DANG PHARMACEUTICAL, published 2020):

Tests used:
[1] = biological target: T1, mouse EGFR (SiNo. Biological Inc, 51091-M08H) (mouse, UniProt Q01279 25-647); test: ELISA, coated antigen 2 µg/ml
T1 construct: extracellular domain
Method: (§1) Particularly, mouse c-Met (SiNo. Biological Inc, 50622-M08H), cynomolgus monkey c-Met (SiNo. Biological Inc, 90304-CO8H), human c-Met (R&D Systems, 358-MT), mouse EGFR (SiNo. Biological Inc, 51091-M08H), cynomolgus monkey EGFR (SiNo. Biological, 90285-008B) and human EGFR (Abcam, 155639) antigens were all divided into a 96-well plate at a concentration of 2 μg/ml, after which the resulting plate was reacted at 4° C. overnight.
(§2) Color development was made by using TMB (Sigma, T4444) solution, wherein its value was measured at an optical density of 450 nm and its ELISA results are shown in FIG. 9.

[2] = biological target: T2, human IGF-I R (R&D systems, 391-GR-050) (human, UniProt P08069 31-932); test: indirect ELISA, hu8C4 at 0.002 nM
Method: (§3) Each antigen was diluted in 0.05 M carbonate-bicarbonate (Sigma, C3041) buffer at a concentration of 1 μg/ml, after which the resulting antigen was added into each well of a 96-well plate (Corning, #2592), such that the resulting plate was coated at 4° C. overnight. The plate was washed once with TBS-T, after which TBS-T containing 4%—skim milk was added by 200 μl into each well of the resulting plate in order to inhibit a non-specific binding, such that the resulting plate was reacted at 37° C. for 1 hour. Then, the plate was washed once with TBS-T buffer, after which a primary antibody was sequentially diluted in TBS-T buffer containing 2%—skim milk from a highest concentration of 30 nM to 0.002 nM, such that the resulting antibody was added by 100 μk into each well, thus being reacted at 37° C. for 2 hours. After being washed three times with TBS-T buffer, an anti-human kappa light chains-peroxidase (Sigma, A7164) was diluted at a ratio of 1:5000 as a secondary antibody, after which the resulting antibody was added by 100 μl into each well, thus being reacted at 37° C. for 1 hour. Then, after being washed three times with TBS-T buffer, TMB solution (Sigma, T4444) was added by 100 μl into each well to carry out an color developing reaction, after which 2 N […] solution was added by 50 μl into each well to stop the reaction. An optical density was measured based on a value at a wavelength of 450 nm by using a microplate reader and a reference wavelength of 570 nm was used.

[3] = biological target: T3, human MSP R/Ron (R&D systems, 1947-MS-050) (human, UniProt Q04912 25-571, limits assumed); test: indirect ELISA, hu8C4 at 0.002 nM
Method: as §3

[4] = biological target: T4, human PDGF Rβ Fc chimera (R&D systems, 385-PR_CF) (human, UniProt P09619 33-530); test: indirect ELISA, hu8C4 at 0.002 nM
Method: as §3

[5] = biological target: T5, human VEGF R2 Fc chimera (R&D systems, 357-KD_CF) (human, UniProt P35968 20-764); test: indirect ELISA, hu8C4 at 0.002 nM
T5 construct: also called VEGFR R2
Method: as §3

[6] = biological target: T6, human c-Met Fc chimera (R&D systems, 358-MT_CF) (human, UniProt P08581 25-932); test: indirect ELISA, hu8C4 at 0.002 nM
T6 construct: extracellular domain; also called human c-Met (R&D Systems, 358-MT)
Method: as §3

[7] = biological target: T2, human IGF-I R (R&D systems, 391-GR-050); test: indirect ELISA, hu8C4 at 0.010 nM
Method: as §3

[8] = biological target: T3, human MSP R/Ron (R&D systems, …); test: indirect ELISA, hu8C4 at 0.010 nM
Method: as §3

[9] = biological target: T4, human PDGF Rβ Fc chimera (R&D systems, …); test: indirect ELISA, hu8C4 at 0.010 nM
Method: as §3

[10] = biological target: T5, human VEGF R2 Fc chimera (R&D systems, …); test: indirect ELISA, hu8C4 at 0.010 nM
Method: as §3

[11] = biological target: T2, human IGF-I R (R&D systems, 391-GR-050); test: indirect ELISA, hu8C4 at 0.240 nM
Method: as §3

[12] = biological target: T3, human MSP R/Ron (R&D systems, …); test: indirect ELISA, hu8C4 at 0.240 nM
Method: as §3

[13] = biological target: T4, human PDGF Rβ Fc chimera (R&D systems, …); test: indirect ELISA, hu8C4 at 0.240 nM
Method: as §3

[14] = biological target: T5, human VEGF R2 Fc chimera (R&D systems, …); test: indirect ELISA, hu8C4 at 0.240 nM
Method: as §3

[15] = biological target: T7, mouse c-Met (SiNo. Biological Inc, 50622-M08H) (mouse, UniProt P16056 25-931); test: ELISA, antigen coated at 2 µg/ml, antibody 6.4 pM to 100 nM, anti-human IgG F(ab')2-HRP, TMB, O.D. at 450 nm [panel Mouse cMet]
T7 construct: extracellular domain
Method: as §1, §2

- binding result [1]: no binding
- A450 nm-A570 nm [2]: 0 A450 nm-A570 nm
- A450 nm-A570 nm [3]: 0 A450 nm-A570 nm
- A450 nm-A570 nm [4]: -0.01 A450 nm-A570 nm
- A450 nm-A570 nm [5]: -0.01 A450 nm-A570 nm
- A450 nm-A570 nm [6]: 0.05 A450 nm-A570 nm
- A450 nm-A570 nm [7]: 0 A450 nm-A570 nm
- A450 nm-A570 nm [8]: 0 A450 nm-A570 nm
- A450 nm-A570 nm [9]: -0.01 A450 nm-A570 nm
- A450 nm-A570 nm [10]: -0.01 A450 nm-A570 nm
- A450 nm-A570 nm [11]: 0 A450 nm-A570 nm
- A450 nm-A570 nm [12]: 0 A450 nm-A570 nm
- A450 nm-A570 nm [13]: -0.01 A450 nm-A570 nm
- A450 nm-A570 nm [14]: -0.02 A450 nm-A570 nm
- binding result [15]: no binding (tested: 100 nM)
B1: hu8C4 (IgG1 humanized antibody having a hinge region of SEQ ID NO: 38 in hu8C4-1) (antibody, V domains shown)
VH: EVQLVESGGGLVQPGGSLRLSCAASGYTFSDYYINWVRQAPGKGLEWIGEIFPGSGNTHFSARFKGRATLSADKSKNTAYLQMNSLRAEDTAVYYCAGGDYGFLYWGQGTLVTVSS
VL: DIQMTQSPSSLSASVGDRVTITCGASENIYGALNWYQQKPGKAPKLLIYGATNLADGVPSRFSGSGSGRDFTFTISSLQPEDIATYYCQNVLSSPYTFGQGTKVEIK
notes: light chain detected with anti-human kappa; also called anti-c-Met antibody hu8C4; hu8C4 monospecific antibody
